The test concerns the target T1, biotin-MBP-tagged AtHAB1 (residues 172-511), Q9CAJ0.
T1 chain: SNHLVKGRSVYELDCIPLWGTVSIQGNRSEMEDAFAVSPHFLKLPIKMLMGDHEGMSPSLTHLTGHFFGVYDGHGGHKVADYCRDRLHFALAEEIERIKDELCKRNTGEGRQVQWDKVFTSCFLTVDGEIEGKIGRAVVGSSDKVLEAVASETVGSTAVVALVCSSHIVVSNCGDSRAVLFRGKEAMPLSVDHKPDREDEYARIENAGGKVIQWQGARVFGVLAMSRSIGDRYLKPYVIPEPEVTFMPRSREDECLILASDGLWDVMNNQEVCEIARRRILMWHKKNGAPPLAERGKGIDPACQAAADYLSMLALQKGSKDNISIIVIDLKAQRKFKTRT
The test can be described thus: AlphaScreen. Conditions: chain shown with the change, read off a plot. A general note: Bead proximity is the source of the signal in Alpha formats.

The mark [1] stands for this setting: ABA (10 μM), parent: est. 12000.
[2] abbreviates: ABA (100 μM), parent: est. 8400.
The mark [3] stands for this setting: DMSO (no ABA), parent: est. 2200.

B1: H6-SUMO-tagged FePYR1 E131A (protein)
chain: MEQQPAAAEPEVPAGLGLTAAEYAELQPTVEAYHRYAVGPGQCSSLVAQRIEAPAAAVWAIVRRFDCPQVYKHFIRSCALRPDPDAGDELRPGRLREVSVISGLPASTSTERLDLLDDARRAFGFTITGGAHRLANYRSVTTVSELAPAAPAKICTVVLESYVVDVPEGNSEEDTRLFADTVVRLNLQKLKSLAEANATSAAAQATPPPQAE
As to B1, the response (photon counts) runs as follows: (ABA (2 μM), parent: est. 6900) 4100; under setting [1], 8000; under setting [2], 7500.

B2: H6-SUMO-tagged FePYR1 H132A (protein)
chain: MEQQPAAAEPEVPAGLGLTAAEYAELQPTVEAYHRYAVGPGQCSSLVAQRIEAPAAAVWAIVRRFDCPQVYKHFIRSCALRPDPDAGDELRPGRLREVSVISGLPASTSTERLDLLDDARRAFGFTITGGEARLANYRSVTTVSELAPAAPAKICTVVLESYVVDVPEGNSEEDTRLFADTVVRLNLQKLKSLAEANATSAAAQATPPPQAE
In the case of B2, the response (photon counts) under setting [2] was 650.

B3: H6-SUMO-tagged FePYR1 E131D (protein)
chain: MEQQPAAAEPEVPAGLGLTAAEYAELQPTVEAYHRYAVGPGQCSSLVAQRIEAPAAAVWAIVRRFDCPQVYKHFIRSCALRPDPDAGDELRPGRLREVSVISGLPASTSTERLDLLDDARRAFGFTITGGDHRLANYRSVTTVSELAPAAPAKICTVVLESYVVDVPEGNSEEDTRLFADTVVRLNLQKLKSLAEANATSAAAQATPPPQAE
Regarding B3, the response (photon counts) by setting is: (ABA (5 μM), parent: est. 17000) 18000; under setting [3], 1900.

B4: H6-SUMO-tagged FePYR1 R133A (protein)
chain: MEQQPAAAEPEVPAGLGLTAAEYAELQPTVEAYHRYAVGPGQCSSLVAQRIEAPAAAVWAIVRRFDCPQVYKHFIRSCALRPDPDAGDELRPGRLREVSVISGLPASTSTERLDLLDDARRAFGFTITGGEHALANYRSVTTVSELAPAAPAKICTVVLESYVVDVPEGNSEEDTRLFADTVVRLNLQKLKSLAEANATSAAAQATPPPQAE
With B4, the response (photon counts) (ABA (2 μM), parent: est. 6900) was 600; the response (photon counts) under setting [1] was determined as 2300; the response (photon counts) under setting [2] came to 3900.

B5: H6-SUMO-tagged FePYR1 L185A (protein)
chain: MEQQPAAAEPEVPAGLGLTAAEYAELQPTVEAYHRYAVGPGQCSSLVAQRIEAPAAAVWAIVRRFDCPQVYKHFIRSCALRPDPDAGDELRPGRLREVSVISGLPASTSTERLDLLDDARRAFGFTITGGEHRLANYRSVTTVSELAPAAPAKICTVVLESYVVDVPEGNSEEDTRLFADTVVRANLQKLKSLAEANATSAAAQATPPPQAE
For B5, the response (photon counts) reads like this: (ABA (5 μM), parent: est. 17000) 18000; under setting [3], 2300.

B6: H6-SUMO-tagged FePYR1 E160A (protein)
chain: MEQQPAAAEPEVPAGLGLTAAEYAELQPTVEAYHRYAVGPGQCSSLVAQRIEAPAAAVWAIVRRFDCPQVYKHFIRSCALRPDPDAGDELRPGRLREVSVISGLPASTSTERLDLLDDARRAFGFTITGGEHRLANYRSVTTVSELAPAAPAKICTVVLASYVVDVPEGNSEEDTRLFADTVVRLNLQKLKSLAEANATSAAAQATPPPQAE
On to B6, for which the response (photon counts) is, setting by setting: (ABA (2 μM), parent: est. 6900) 2600; under setting [1], 4900; under setting [2], 9000.

B7: H6-SUMO-tagged FePYR1 A106S (protein)
chain: MEQQPAAAEPEVPAGLGLTAAEYAELQPTVEAYHRYAVGPGQCSSLVAQRIEAPAAAVWAIVRRFDCPQVYKHFIRSCALRPDPDAGDELRPGRLREVSVISGLPSSTSTERLDLLDDARRAFGFTITGGEHRLANYRSVTTVSELAPAAPAKICTVVLESYVVDVPEGNSEEDTRLFADTVVRLNLQKLKSLAEANATSAAAQATPPPQAE
With B7, the response (photon counts) under setting [2] stood at 2100.

B8: H6-SUMO-tagged FePYR1 H73P (protein)
chain: MEQQPAAAEPEVPAGLGLTAAEYAELQPTVEAYHRYAVGPGQCSSLVAQRIEAPAAAVWAIVRRFDCPQVYKPFIRSCALRPDPDAGDELRPGRLREVSVISGLPASTSTERLDLLDDARRAFGFTITGGEHRLANYRSVTTVSELAPAAPAKICTVVLESYVVDVPEGNSEEDTRLFADTVVRLNLQKLKSLAEANATSAAAQATPPPQAE
Regarding B8, the response (photon counts) runs as follows: (ABA (5 μM), parent: est. 17000) 15000; under setting [3], 2000.

B9: H6-SUMO-tagged FePYR1 N186A (protein)
chain: MEQQPAAAEPEVPAGLGLTAAEYAELQPTVEAYHRYAVGPGQCSSLVAQRIEAPAAAVWAIVRRFDCPQVYKHFIRSCALRPDPDAGDELRPGRLREVSVISGLPASTSTERLDLLDDARRAFGFTITGGEHRLANYRSVTTVSELAPAAPAKICTVVLESYVVDVPEGNSEEDTRLFADTVVRLALQKLKSLAEANATSAAAQATPPPQAE
B9: the response (photon counts) (ABA (2 μM), parent: est. 6900) amounted to 1200; the response (photon counts) under setting [1] is 3900; the response (photon counts) under setting [2] is 5800.

B10: H6-SUMO-tagged FePYR1 I75A (protein)
chain: MEQQPAAAEPEVPAGLGLTAAEYAELQPTVEAYHRYAVGPGQCSSLVAQRIEAPAAAVWAIVRRFDCPQVYKHFARSCALRPDPDAGDELRPGRLREVSVISGLPASTSTERLDLLDDARRAFGFTITGGEHRLANYRSVTTVSELAPAAPAKICTVVLESYVVDVPEGNSEEDTRLFADTVVRLNLQKLKSLAEANATSAAAQATPPPQAE
Consider B10, for which the response (photon counts) (ABA (5 μM), parent: est. 17000) was found to be 9600 and the response (photon counts) under setting [3] was 2600.

B11: H6-SUMO-tagged FePYR1 F178A (protein)
chain: MEQQPAAAEPEVPAGLGLTAAEYAELQPTVEAYHRYAVGPGQCSSLVAQRIEAPAAAVWAIVRRFDCPQVYKHFIRSCALRPDPDAGDELRPGRLREVSVISGLPASTSTERLDLLDDARRAFGFTITGGEHRLANYRSVTTVSELAPAAPAKICTVVLESYVVDVPEGNSEEDTRLAADTVVRLNLQKLKSLAEANATSAAAQATPPPQAE
Consider B11, for which the response (photon counts) under setting [2] was 2500.

B12: H6-SUMO-tagged FePYR1 P105A (protein)
chain: MEQQPAAAEPEVPAGLGLTAAEYAELQPTVEAYHRYAVGPGQCSSLVAQRIEAPAAAVWAIVRRFDCPQVYKHFIRSCALRPDPDAGDELRPGRLREVSVISGLAASTSTERLDLLDDARRAFGFTITGGEHRLANYRSVTTVSELAPAAPAKICTVVLESYVVDVPEGNSEEDTRLFADTVVRLNLQKLKSLAEANATSAAAQATPPPQAE
Consider B12, for which the response (photon counts) (ABA (2 μM), parent: est. 6900) came out at 1400; the response (photon counts) under setting [1] amounted to 3300; the response (photon counts) under setting [2] came out at 5700.

B13: H6-SUMO-tagged FePYR1 I127V (protein)
chain: MEQQPAAAEPEVPAGLGLTAAEYAELQPTVEAYHRYAVGPGQCSSLVAQRIEAPAAAVWAIVRRFDCPQVYKHFIRSCALRPDPDAGDELRPGRLREVSVISGLPASTSTERLDLLDDARRAFGFTVTGGEHRLANYRSVTTVSELAPAAPAKICTVVLESYVVDVPEGNSEEDTRLFADTVVRLNLQKLKSLAEANATSAAAQATPPPQAE
As to B13, the response (photon counts) (ABA (5 μM), parent: est. 17000) came out at 17000 and the response (photon counts) under setting [3] turned out to be 2200.

B14: H6-SUMO-tagged FePYR1 I75V (protein)
chain: MEQQPAAAEPEVPAGLGLTAAEYAELQPTVEAYHRYAVGPGQCSSLVAQRIEAPAAAVWAIVRRFDCPQVYKHFVRSCALRPDPDAGDELRPGRLREVSVISGLPASTSTERLDLLDDARRAFGFTITGGEHRLANYRSVTTVSELAPAAPAKICTVVLESYVVDVPEGNSEEDTRLFADTVVRLNLQKLKSLAEANATSAAAQATPPPQAE
With B14, the response (photon counts) was found to be 16000 (ABA (5 μM), parent: est. 17000) and 2100 under setting [3].

B15: H6-SUMO-tagged FePYR1 G103A (protein)
chain: MEQQPAAAEPEVPAGLGLTAAEYAELQPTVEAYHRYAVGPGQCSSLVAQRIEAPAAAVWAIVRRFDCPQVYKHFIRSCALRPDPDAGDELRPGRLREVSVISALPASTSTERLDLLDDARRAFGFTITGGEHRLANYRSVTTVSELAPAAPAKICTVVLESYVVDVPEGNSEEDTRLFADTVVRLNLQKLKSLAEANATSAAAQATPPPQAE
Regarding B15, the response (photon counts) is, setting by setting: (ABA (2 μM), parent: est. 6900) 700; under setting [1], 1800; under setting [2], 2800.

B16: H6-SUMO-tagged FePYR1 K72A (protein)
chain: MEQQPAAAEPEVPAGLGLTAAEYAELQPTVEAYHRYAVGPGQCSSLVAQRIEAPAAAVWAIVRRFDCPQVYAHFIRSCALRPDPDAGDELRPGRLREVSVISGLPASTSTERLDLLDDARRAFGFTITGGEHRLANYRSVTTVSELAPAAPAKICTVVLESYVVDVPEGNSEEDTRLFADTVVRLNLQKLKSLAEANATSAAAQATPPPQAE
Take B16: under setting [2], the response (photon counts) turned out to be 1200.

B17: H6-SUMO-tagged FePYR1 V182L (protein)
chain: MEQQPAAAEPEVPAGLGLTAAEYAELQPTVEAYHRYAVGPGQCSSLVAQRIEAPAAAVWAIVRRFDCPQVYKHFIRSCALRPDPDAGDELRPGRLREVSVISGLPASTSTERLDLLDDARRAFGFTITGGEHRLANYRSVTTVSELAPAAPAKICTVVLESYVVDVPEGNSEEDTRLFADTLVRLNLQKLKSLAEANATSAAAQATPPPQAE
On to B17, for which the response (photon counts) worked out at 3300 (ABA (5 μM), parent: est. 17000) and 2000 under setting [3].

B18: H6-SUMO-tagged FePYR1 K72R (protein)
chain: MEQQPAAAEPEVPAGLGLTAAEYAELQPTVEAYHRYAVGPGQCSSLVAQRIEAPAAAVWAIVRRFDCPQVYRHFIRSCALRPDPDAGDELRPGRLREVSVISGLPASTSTERLDLLDDARRAFGFTITGGEHRLANYRSVTTVSELAPAAPAKICTVVLESYVVDVPEGNSEEDTRLFADTVVRLNLQKLKSLAEANATSAAAQATPPPQAE
B18: the response (photon counts) under setting [2] came to 1300.

For the origin of these results see publication PMC5656587, “Structure determination and activity manipulation of the turfgrass ABA receptor FePYR1” (Scientific Reports, 2017).
